{"source": "patent US20190327974A1", "about": "“SYNERGISTS FOR IMPROVED PESTICIDES” (priority 2017, published 2019)", "key": {"[1]": {"system": "CCCC(=O)Oc1ccc([N+](=O)[O-])cc1", "assay": "Inhibition of Gly137Asp LcαE7, 4-nitrophenol butyrate hydrolysis", "assay_type": "biochemical, Lucilia cuprina", "conditions": "other: Gly137Asp αE7, room temperature; pH 7.5", "excerpt": "(§1) The term “carboxyethylesterase” (CBE), refers to insect carboxylesterases from the alpha and beta and non-microsomal gene clusters, as defined in Oakeshott, Claudianos, Campbell, Newcomb and Russell, “Biochemical Genetic and Genomics of Insect Esterases”, pp 309-381, Chapter 10, Volume 5, 2005, Eds. Gilbert, Iatrou, Gill, published—Elsevier which is incorporated herein by reference. The αE7 CBE is an example of an alpha esterase, and is found in the sheep blowfly, Lucilia cuprina, with homologous genes being present in other insect pests. […]\n(§2) His6-tagged proteins were expressed in BL21(DE3) E. coli (Invitrogen) at 26° C. for 18 hours. […] Protein concentration was determined by measuring the absorbance at 280 nm with an extinction coefficient calculated using the Protparam online server (Gasteiger, E. et al. Protein identification and analysis tools on the ExPASy server. Proteomics Protoc. Handb. 571-607 (2005). doi:10.1385/1-59259-890-0:571).\n(§3) Inhibition of wild-type αE7 and the Gly137Asp αE7 variant was determined by a competition assay between the native-substrate analogue 4-nitrophenol butyrate (Sigma) and the boronic acid compounds. Initially, the Michalis constant (KM) with 4-nitrophenol butyrate was measured for both enzymes to determine an appropriate concentration of substrate for use in the competition assays. […]"}, "[2]": {"system": "CCCC(=O)Oc1ccc([N+](=O)[O-])cc1", "assay": "Inhibition of wild-type LcαE7, 4-nitrophenol butyrate hydrolysis", "assay_type": "biochemical, Lucilia cuprina", "conditions": "other: wildtype αE7, room temperature; pH 7.5", "excerpt": "as §1, §2, §3"}, "[3]": {"system": "other serine hydrolases (e.g. α-lytic protease)", "conditions": "cited from earlier work"}}}
{"molecule": "Lucilia cuprina αE7 carboxylesterase (LcαE7) variant Gly137Asp (Lucilia cuprina; G137D)", "values": [{"measurement": "Km", "setting": "[1]", "value": 250, "unit": "µM"}]}
{"molecule": "Lucilia cuprina αE7 carboxylesterase (LcαE7), wild type, GenBank AAB67728.1 (Lucilia cuprina)", "values": [{"measurement": "Km", "setting": "[2]", "value": 15, "unit": "µM"}]}
{"molecule": "OB(O)c1ccccc1", "note": "[PBA, phenylboronic acid]", "values": [{"measurement": "inhibition of other serine hydrolases", "setting": "[3]", "value": "micromolar to millimolar inhibition"}]}
